Experimental data published in paper PMC6981728, “The Mitochondrial Small Heat Shock Protein HSP22 from Pea is a Thermosoluble Chaperone Prone to Co-Precipitate with Unfolding Client Proteins” (International Journal of Molecular Sciences, 2019).
Several values for one entry are separate records, joined by “and”; a condition that tells them apart may be missing. Identical values can stand only once.

T1: rhodanese from bovine liver (bovine, UniProt P00586 1-297)
T1 construct: rhodanese (thiosulfate sulfurtransferase) from bovine liver; called a monomeric enzyme of 33 kDa; In the assays it is heat denatured (50 °C) and aggregating; source: bought: Merck KGaA (rhodanese from bovine liver II)
T1 sequence (looked up): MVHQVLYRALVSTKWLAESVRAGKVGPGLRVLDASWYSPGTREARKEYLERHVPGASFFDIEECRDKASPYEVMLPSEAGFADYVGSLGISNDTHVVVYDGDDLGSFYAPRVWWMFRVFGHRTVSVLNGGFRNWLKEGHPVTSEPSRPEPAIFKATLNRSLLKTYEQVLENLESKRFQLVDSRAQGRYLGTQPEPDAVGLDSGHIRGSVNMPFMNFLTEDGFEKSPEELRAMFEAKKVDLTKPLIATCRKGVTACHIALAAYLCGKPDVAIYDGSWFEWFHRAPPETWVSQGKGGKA


Columns and labels:
[1] = molecular target: T1, rhodanese from bovine liver; test: co-sedimentation; heat aggregation assay with purified proteins: 8 to 25 µg of proteins in 50 µL MOPS 50 mM pH 7.5, DTT 1 mM, EDTA 1 mM, heated 20 min at 50 °C, 15 min on ice, centrifuged 30 min at 20,000 g; supernatants and pellets by SDS-PAGE; 1:1 mass ratio or molar ratios up to 9:1; conditions: both partners purified
[2] = molecular target: the molecule itself; test: SEC; purified HSP22rec (100 µg) at 20 °C; Superdex 200 10/300GL, 0.25 mL/min, 20 mM Tris pH 7.4, 1 mM EDTA, 150 mM NaCl; masses from a calibration curve with standard proteins
[3] = molecular target: the molecule itself; test: SEC; pea seed mitochondrial soluble proteins (7 mg) separated at 20 °C; fractions analysed by Western blot with the anti-HSP22 Cterm antibody

Binder	binding result [1]	stoichiometry N [2]	stoichiometry N [3]
recombinant HSP22 (HSP22rec), mature mitochondrial small heat shock protein HSP22 from pea (natural protein, UniProt P46254 32-202, looked up, mature HSP22 of pea, amplified from a cDNA encoding the HSP22 precursor (UniProtKB P46254); 19.5 kDa and 170 residues stated; Cloned by NdeI/BamHI into pET3a, so an added initiator methionine is likely (surmise); No tag is mentioned; source: E. coli B834 pLys (pET3a, pET-HSP22), purified (anion exchange HitrapQ, two SEC steps on Superdex 200); also unpurified in soluble extract of the …) FNTNAMRQYDQHSDDRNVDVYRHSFPRTRRDDLLLSDVFDPFSPPRSLSQVLNMVDLLTDNPVLSAASRRGWDARETEDALFLRLDMPGLGKEDVKISVEQNTLTIKGEEGAKESEEKEKSGRRFSSRIDLPEKLYKIDVIKAEMKNGVLKVTVPKMKEEERNNVINVKVD	binds	20 mer and 12 mer and 8 mer	
native HSP22 of pea seed mitochondria (natural protein, UniProt P46254 32-202, looked up, mitochondrial small heat shock protein HSP22 of pea, native protein in the soluble (matrix) extract of mitochondria from 22 h imbibed pea seeds; Detected by Western blot with anti-HSP22 peptide antibodies; source: endogenous, soluble protein extract of pea seed mitochondria) FNTNAMRQYDQHSDDRNVDVYRHSFPRTRRDDLLLSDVFDPFSPPRSLSQVLNMVDLLTDNPVLSAASRRGWDARETEDALFLRLDMPGLGKEDVKISVEQNTLTIKGEEGAKESEEKEKSGRRFSSRIDLPEKLYKIDVIKAEMKNGVLKVTVPKMKEEERNNVINVKVD			2 mer and 3 mer
